Results reported in patent US9759725B2, “Treatment-induced damage to the tumor micro-environment promotes cancer therapy resistance through extracellular proteins” (Fred Hutchinson Cancer Research Center, priority 2012, dated 2017).
“Also recorded” adds a separate entry of the source.

B1: GDNF: glial cell line-derived neurotrophic factor, purified / human recombinant protein used to stimulate cells (protein)
chain: SPDKQMAVLPRRERNRQAAAANPENSRGKGRRGQRGKNRGCVLTAIHLNVTDLGLGYETKEELIFRYCSGSCDAAETTYDKILKNLSRNRRLVSDKVGQACCRPIAFDDDLSFLDDNLVYHILRKHSAKRCGCI

What was measured:
Format in all cases: cell-based, human
PSC27 fibroblasts = experiment: Induction of DDSP factors in PSC27 fibroblasts with mTOR inhibition before ionizing radiation; conditions: summary statement
Method: The effects of inhibiting mTOR signaling in the context of genotoxic stress was evaluated. PSC27 fibroblasts were treated with Rapamycin (RAPA) prior to ionizing radiation.

PSC27 stromal cells = experiment: SFK and Ras/Raf/Erk pathway activation in PSC27 stromal cells on GDNF stimulation
Text: Stimulation of epithelial CaP cells with GDNF leads to the activation of the SFK and the Ras/Raf/Erk pathways (FIG. 25). To determine if the same pathways are involved in the pro-proliferative effect on the PSC27 stromal cells, PSC27 cells were stimulated with hrGDNF or conditioned medium from PSC27/iGDNF-V5 cells. […] Additional more downstream effector proteins potentially involved in these effects are also being examined.

epithelial CaP cells [1] = experiment: Proliferation of epithelial CaP cells on GDNF stimulation
Method: (§1) To study the effect GDNF has on tumor growth, we have used two experimental approaches have been used. 1) the effect of purified GDNF on cell proliferation of epithelial cells was analyzed and 2) GDNF over-expressing and secreting human prostate fibroblasts were generated which can also be used in co-culture and in vivo experiments. […] GDNF can act in the absence of RET via GFRA1 activating SFK pathways or through the activation of the RET/GFRA1 complex activating the Ras/Raf/Erk pathway. In our experiments we determined that both pathways were activated in GDNF sensitive cell lines (FIG. 23B). […] The number of epithelial cell lines are being expanded and analyzed after GDNF stimulation. GDNF-activated SFK and Erk pathways can lead to reduced sensitivity to pro-apoptotic treatments or decrease drug sensitivity.

epithelial CaP cells [2] = experiment: Src/SFK and Erk pathway activation in CaP cells on GDNF stimulation; conditions: GDNF responsive cells
Method: as §1

Row | Molecule | suppression of key DDSP proteins including Wnt16B (PSC27 fibroblasts) | Ras/Raf/Erk and SFK pathways in stromal cells (PSC27 stromal cells) | proliferation of Ret and GFRA1 negative cells (epithelial CaP cells [1]; after 3 or 5 days) | GDNF concentration of maximum stimulation of proliferation (epithelial CaP cells [1]; in the culture medium) | proliferation of cells expressing GDNF receptors Ret and/or GFRA1 (epithelial CaP cells [1]; increasing concentrations of GDNF) | Src (SFK) and Erk (Ras/Raf/Erk) pathways (epithelial CaP cells [2])
1 | CO[C@H]1C[C@@H]2CC[C@@H](C)[C@@](O)(O2)C(=O)C(=O)N2CCCC[C@H]2C(=O)O[C@H]([C@H](C)C[C@@H]2CC[C@@H](OCCO)[C@H](OC)C2)CC(=O)[C@H](C)/C=C(\C)[C@@H](O)[C@@H](OC)C(=O)[C@H](C)C[C@H](C)/C=C/C=C/C=C/1C [RAD001] | effectively suppress | – | – | – | – | –
2 | B1 | – | stimulated; also recorded: activation | did not show any increase in proliferation; also recorded: do not show any differences in proliferation | around 10 ng/ml | induced cell proliferation; also recorded: increased proliferation | activated; also recorded: activation
